A short description of this data set: soluble on expression in E. coli; label from the status in PepcDB or PDB records.
For “MANSITADEIREQFSQAMSAMYQQEVPQYGTLLELVADVNLAVLENNPQLHEKMVNADELARLNVERHGAIRVGTAQELATLRRMFAIMGMYPVSYYDLSQAGVPVHSTAFRPIDDASLARNPFRVFTSLLRLELIENEILRQKAAEILRQRDIFTPRCRQLLEEYEQQGGFNETQAQEFVQEALETFRWHQSATVDEETYRALHNEHRLIADVVCFPGCHINHLTPRTLDIDRVQSMMPECGIEPKILIEGPPRREVPILLRQTSFKALEETVLFAGQKQGTHTARFGEIEQRGVALTPKGRQLYDDLLRNAGTGQDNLTHQMHLQETFRTFPDSEFLMRQQGLAWFRYRLTPSGEAHRQAIHPGDDPQPLIERGWVVAQPITYEDFLPVSAAGIFQSNLGNETQTRSHGNASREAFEQALGCPVLDEFQLYQEAEERSKRRCGLL”, the “soluble on expression in E. coli” value is “not soluble”.
For the sequence “NKYNKIANELIKIIGEDNIISITHCATRLRVMVKDREIINDKKVEKVDEVKGVFFTSGQYQIILGTGIVNKVYAEVEKMGLKTLSKKEQDELVKNNE”, the “soluble on expression in E. coli” value was “soluble”.
Under “MAHHHHHHSAALEVLFQGPGMAETKLQLFVKASEDGESVGHCPSCQRLFMVLLLKGVPFTLTTVDTRRSPDVLKDFAPGSQLPILLYDSDAKTDTLQIEDFLEETLGPPDFPSLAPRYRESNTAGNDVFHKFSAFIKNPVPAQDEALYQQLLRALARLDSYLRAPLEHELAGEPQLRESRRRFLDGDRLTLADCSLLPKLHIVDTVCAHFRQAPIPAELRGVRRYLDSAMQEKEFKYTCPHSAEILAAYR” stands “soluble”.
As for “MAAQQRDCGGAAQLAGPAAEADPLGRFTCPVCLEVYEKPVQVPCGHVFCSACLQECLKPKKPVCGVCRSALAPGVRAVELERQIESTETSCHGCRKNFFLSKIRSHVATCSKYQNYIMEGVKATIKDASLQPRNVPNRYTFPCPYCPEKNFDQEGLVEHCKLFHSTDTKSVVCPICASMPWGDPNYRSANFREHIQRRHRFSYDTFVDYDVDEEDMMNQVLQRSIIDQ”, the “soluble on expression in E. coli” value was “soluble”.
In the case of “MEEPQITVGILSGKEIEFSFPESFTTPDGTKVSGAQKAVYQKEKIYWSGKEYDELIFYPQPNAGIFFELKDVTIGINFHWERKEVQRFQGALKIIVEGETLTAINVISIEDYLTSVISSEMSATASLELLKAHAVISRSWLINKLRVENEKWKATIQPDSAANSPHSTLHSQLIKWYDHEAHTHFDVCADDHCQRYQGITRASTPQAIEAVSATRGEVLMYEGKICDARFSKCCGGAMEEFQNCWENVRHPYLTGKRDYIPESHASDSEKQITGPAIQLPDLTQEEEADRWIRTSPDAFCNTQDKKILSQVLNNYDQETTDFYRWKISYSQQELAELIHQRSGIDFGEIIDLIPVERGTSGRLIRLKIVGTLRTLTIGKELEIRRTLSPSHLYSSAFLVDKEKGEEGNVPTRFTLTGAGWGHGVGLCQIGAAVMGERGYYYKDILAHYYPGSRLEKQYE” it was “not soluble”.
“MDELFTESAKAVLAIAQEEAKYFRHQSVGSEHLLLALVLEPNGIAGKTLRQLNTDTEDIREEIEHLSGYGTMQSPMGNNNLYLPYSPRAKQIFAYAGDEAKRLGAQKIGTEHLLLGLLRDEEILASRILVNLGLSLSKMRQLLLKKMG”: the “soluble on expression in E. coli” value is “soluble”.
In the case of “MGSDKIHHHHHHMVTHWLPDLSTAEGPLYIRIADRAEADIKTGRLSSGAKLPPQRDLAFDLKVTIGTITRAYALLRERGLVTGEVGRGTYVQSSLAESETDIHRDPVTLTYGGTRTLSPPPGKLRFDTTAAIDVGQADIIGRLMTDIARDQPDEIASYTRTLLPDWLEAGRRWLSNGDWSPEAANIVPQMGVHAGVNAVIAAISGTGDRIVCEHLTYSQIARSASLMGRQIALVDSDHDGIMPEDFERVCAREHPKAAFIMSSGQNPTLSCLPLSRRLEIIDIARRYNVWLIEDYIYGALVDDGIPLLAQLAPDRTFLLNSLSKSVAAGVRGGWVACPDHMSQRVRVTQKMVCGGLPFLLAELSARLVLSGAADDIRGRVLEELSAREQIVRQLFEGYEFRSHPRLPYFWLKLPEPWLSGTFKQAALDQGVLIDDEDEFKPARSSRVFHHIRAGFSEGRDRSIAEGGLITLRRILDQIPVGSNAVM”, the “soluble on expression in E. coli” value is on record as “not soluble”.
As to “MSLGQIKGDLHMHSTWSDGAFSIREMAEACIKKGYQYMAITDHSQYLKVANGLTAERLKQQAKEIDALNAEFENFRILKGVEMDILPDGTLDYDDDVLAEMDIVIASIHSSFNQPEHVIMKRLETALTNKHVDIIAHPTGRLIGRRAGYEIDIDQLIELARKTNTALELNANPARLDLRTEHLMKANEQGVTLVINTDAHNIEMLDDMKTGVTAARKGWTETKNVLNARSLKDVEAFLKRNDEGHHHHHH”, the “soluble on expression in E. coli” value is “soluble”.
Under “MAHHHHHHMPNSVDCDFLNAPAHPPCNNRISASSRSRDGASIRNIGSISNIGARNRGARNCDQVIHTVYVKYFEMERYLGNINYNMDYFNPVLNHPTKIEHGKIKILILDAPTNDLLPLYIKEMKNYNVTDLVRTCERTYNDGEITSAGINVHELIFPDGDAPTVDIVSNWLTIVNNVIKNNRAVAVHCVAGLGRAPVLASIVLIEFGMDPIDAIVFIRDRRKGAINKRQLQFLKAYKKKKKKKNCLRKCHFM” stands “not soluble”; under “SESETRVKSVRTGRKPIGNPEDEQETSKPSDDEFLRGKRVLVVDDNFISRKVATGKLKKMGVSEVEQCDSGKEALRLVTEGLTQREEQGSVDKLPFDYIFMDCQMPEMDGYEATREIRKVEKSYGVRTPIIAVSGHDPGSEEARETIQAGMDAFLDKSLNQLANVIREIESKR”, “not soluble”.
Turning to “MSLTNVAEDQLTAQAVAPPTEASAALEPALETPESPVETLKTSISASRRVRARLARRMTAQRSTTNPVLEPLVAVHREIYPKADLSILQRAYEVADQRHASQLRQSGDPYITHPLAVANILAELGMDTTTLVAALLHDTVEDTGYTLEALTEEFGEEVGHLVDGVTKLDRVVLGSAAEGETIRKMITAMARDPRVLVIKVADRLHNMRTMRFLPPEKQARKARETLEVIAPLAHRLGMASVKWELEDLSFAILHPKKYEEIVRLVAGRAPSRDTYLAKVRAEIVNTLTASKIKATVEGRPKHYWSIYQKMIVKGRDFDDIHDLVGVRILCDEIRDCYAAVGVVHSLWQPMAGRFKDYIAQPRYGVYQSLHTTVVGPEGKPLEVQIRTRDMHRTAEYGIAAHWRYKEAKGRNGVLHPHAAAEIDDMAWMRQLLDWQREAADPGEFLESLRYDLAVQEIFVFTPKGDVITLPTGSTPVDFAYAVHTEVGHRCIGARVNGRLVALERKLENGEVVEVFTSKAPNAGPSRDWQQFVVSPRAKTKIRQWFAKERREEALETGKDAMAREVRRGGLPLQRLVNGESMAAVARELHYADVSALYTAIGEGHVSAKHVVQRLLAELGGIDQAEEELAERSTPATMPRRPRSTDDVGVSVPGAPGVLTKLAKCCTPVPGDVIMGFVTRGGGVSVHRTDCTNAASLQQQAERIIEVLWAPSPSSVFLVAIQVEALDRHRLLSDVTRALADEKVNILSASVTTSGDRVAISRFTFEMGDPKHLGHLLNAVRNVEGVYDVYRVTSEGHHHHHH”, the “soluble on expression in E. coli” value is “not soluble”.
As to “MSLIEKLRNIAIIAHVDHGKTTLVDKLLQQSGTFDSRAETQERVMDSNDLEKERGITILAKNTAIKWNDYRINIVDTPGHADFGGEVERVMSMVDSVLLVVDAFDGPMPQTRFVTKKAFAYGLKPIVVINKVDRPGARPDWVVDQVFDLFVNLDATDEQLDFPIVYASALNGIAGLDHEDMAEDMTPLYQAIVDHVPAPDVDLDGPFQMQISQLDYNSYVGVIGIGRIKRGKVKPNQQVTIIDSEGKTRNAKVGKVLGHLGLERIETDLAEAGDIVAITGLGELNISDTVCDTQNVEALPALSVDEPTVSMFFCVNTSPFSGKEGKFVTSRQILDRLNKKLVHNVALRVEETEDADAFRVSGRGELHLSVLIENMRREGFELAVSRPKVIFREIDGRKQEPYENVTLDVEEQHQGSVMQALGERKGDLKNMNPDGKGRVRLDYVIPSRGLIGFRSEFMTMTSGTGLLYSTFSHYDDVRPGEVGQRQNGVLISNGQGKAVAFALFGLQDRGKLFLGHGAEVYEGQIIGIHSRSNDLTVNCLTGKKLTNMRASGTDEAVVLVPPIRMTLEQALEFIDDDELVEVTPTSIRIRKRHLTENDRRRANRAPKDEGHHHHHH”, the “soluble on expression in E. coli” value is on record as “soluble”.
